“Also recorded” adds a separate entry of the source. Read-outs that look alike come from different tables or passages of the source.
Experiments:
[1] = Substrate specificity, Bz-Tyr-pNa; assay type: biochemical
Azocoll = assay: Azocoll-decomposing activity; assay type: biochemical; details: for SUBSTRATE SPECIFICITY: substrate Azocoll
Azocasein = assay: Substrate specificity, Azocasein; assay type: biochemical
From the text: As a method for evaluating an influence on the fragmentation activity of PrB, the “lactase-fragmenting activity” can be also used as its index. This “lactase-fragmenting activity” indicates the enzyme activity of fragmenting the lactase protein, and an actual index can be defined as follows. When the band strength around 120 kDa of a sample to which PrB is not added is regarded as 100%, the band area relative value around 120 kDa of samples obtained by adding 1 to 4 mACU of PrB is found as a relative value (1 ACU means the amount of enzyme which raises the absorbance at 428 nm by 1 at 30° C. for an hour using azocasein as a substrate). Next, the amount of enzyme added when the lactase band after reaction at 30° C. for an hour decreases by 20% compared to when PrB is not added is regarded as 1 LDU (Lactase Degradation Unit) of lactase-fragmenting activity.

[2] = Substrate specificity, Bz-Arg-pNa; assay type: biochemical
BSA = assay: Substrate specificity, BSA; assay type: biochemical
Casein = assay: Substrate specificity, Casein; assay type: biochemical
[3] = Substrate specificity, Ac-Phe-pNa; assay type: biochemical
FITC-casein = assay: FITC-casein-decomposing activity; assay type: biochemical; details: for SUBSTRATE SPECIFICITY: substrate FITC-casein
lactase [4] = assay: Lactase-fragmenting activity (LDU); assay type: biochemical, Kluyveromyces; details: for SUBSTRATE SPECIFICITY: substrate Lactase
From the text: In addition, the “lactase-fragmenting action” in the claims and description can be an action by which the neutral lactase around 120 kDa in SDS-PAGE is fragmented, and preferably the fragments of the fragmented lactase show the neutral lactase activity. As a method for evaluating an influence on the fragmentation activity of PrB, the “lactase-fragmenting activity” can be also used as its index. This “lactase-fragmenting activity” indicates the enzyme activity of fragmenting the lactase protein, and an actual index can be defined as follows. When the band strength around 120 kDa of a sample to which PrB is not added is regarded as 100%, the band area relative value around 120 kDa of samples obtained by adding 1 to 4 mACU of PrB is found as a relative value (1 ACU means the amount of enzyme which raises the absorbance at 428 nm by 1 at 30° C. for an hour using azocasein as a substrate). Next, the amount of enzyme added when the lactase band after reaction at 30° C. for an hour decreases by 20% compared to when PrB is not added is regarded as 1 LDU (Lactase Degradation Unit) of lactase-fragmenting activity.

lactase [5] = assay: Fragmentation of lactase confirmed by SDS-PAGE; assay type: biochemical, Kluyveromyces
Procedure: First, the state of fragmentation of lactase in a lactase solution can be confirmed by SDS-PAGE using 10% polyacrylamide gel. For example, a lactase solution is diluted with purified water as needed, and mixed with Sample Buffer for SDS-PAGE at 1:1, and electrophoresis samples are prepared by heat treatment at 100° C. for 3 minutes. Next, the standard and electrophoresis samples are applied to 10% acrylamide gel, and subjected to electrophoresis. The molecular weight of lactase can be also roughly estimated by comparison with the standard. As the standard, CLEARLY Stained Protein Ladder (Takara #3454A) and the like are used. The gel after electrophoresis is subjected to protein staining using a CBB staining solution (BIO-RAD #161-0786).
The gel after staining was scanned as a grayscale image with a scanner GT-X820 manufactured by Seiko Epson Corporation. Furthermore, the concentration of each band (protein amount) can be also measured by Image J software (NIH, Bethesda, Md.). […]
As prior consideration, the following test was carried out about a relationship between the fragmentation and heat stability of lactase. […] As the conditions of the heat stability test, using an enzyme solution (lactase solution) diluted to 0.25 NLU/g, the activity after treatment at 50° C. for 10 minutes was calculated as the remaining activity (%) to that of an untreated sample. […]

[6] = pH 7.0, cited from earlier work
[7] = FITC-casein-decomposing activity
[8] = FITC-casein-decomposing activity, listed as K. lactis

B1: S. cerevisiae: PrB derived from S. cerevisiae, comparison enzyme (protein, UniProt P09232 281-574, looked up)
Cerevisin: EFDTQNSAPWGLARISHRERLNLGSFNKYLYDDDAGRGVTSYVIDTGVNINHKDFEKRAIWGKTIPLNDEDLDGNGHGTHCAGTIASKHYGVAKNANVVAVKVLRSNGSGTMSDVVKGVEYAAKAHQKEAQEKKKGFKGSTANMSLGGGKSPALDLAVNAAVEVGIHFAVAAGNENQDACNTSPASADKAITVGASTLSDDRAYFSNWGKCVDVFAPGLNILSTYIGSDDATATLSGTSMASPHVAGLLTYFLSLQPGSDSEFFELGQDSLTPQQLKKKLIHYSTKDILFDIPE
SUBSTRATE SPECIFICITY [1]: 0.2 | HEAT STABILITY (Azocoll; Azocoll-decomposing activity): 25 °C | INHIBITOR (Azocoll; Azocoll-decomposing activity): PCMB, PMSF,; also recorded: HgCl2 | OPTIMUM REACTION pH (Azocoll; Azocoll-decomposing activity): pH 7.0 | SUBSTRATE SPECIFICITY (Azocoll): 9.1 | SUBSTRATE SPECIFICITY (Azocasein): 1

B2: PrB: proteinase B derived from Kluyveromyces lactis, neutral protease with lactase-fragmenting activity, SEQ ID NO:1 (protein, listed as Kluyveromyces lactis)
chain: SFNTQNSAPWGLARISHREKLNLGSFNKYLYDDDAGKGVTAYVVDTGVNVNHKDFDGRAVWGKTIPKDDPDVDGNGHGTHCAGTIGSVHYGVAKNADIVAVKVLRSNGSGTMSDVVKGVEYVAEAHKKAVEEQKKGFKGSTANMSLGGGKSPALDLAVNAAVKAGVHFAVAAGNENQDACNTSPAAAENAITVGASTLSDERAYFSNWGKCVDIFGPGLNILSTYIGSDTATATLSGTSMATPHVVGLLTYFLSLQPDADSEYFHAAGGITPSQLKKKLIDFSTKNVLSDLPEDTVNY
SUBSTRATE SPECIFICITY [2]: 0 | SUBSTRATE SPECIFICITY (BSA): 0 | SUBSTRATE SPECIFICITY (Casein): 0 | SUBSTRATE SPECIFICITY [1]: 0 | SUBSTRATE SPECIFICITY [3]: 0 | SUBSTRATE SPECIFICITY (Azocoll): 1.9 | SUBSTRATE SPECIFICITY (Azocasein): 1 | ACTIVATOR (FITC-casein; [7]): Ca^2+ | HEAT STABILITY (FITC-casein; [7]): 40 °C | INHIBITOR (FITC-casein; [7]): Cu^2+, Fe^2+ | OPTIMUM REACTION TEMPERATURE (FITC-casein; [7]): about 40 °C | OPTIMUM REACTION pH (FITC-casein; [7]): about 8.0 pH | pH STABILITY (FITC-casein; [7]): 5.0 to 8.0 pH | OPTIMUM REACTION TEMPERATURE (FITC-casein; [8]): 40 °C | OPTIMUM REACTION pH (FITC-casein; [8]): pH 8.0 | pH STABILITY (FITC-casein; [8]): pH 5.0~8.0 | SUBSTRATE SPECIFICITY (FITC-casein): high substrate specificity | SUBSTRATE SPECIFICITY (FITC-casein; listed as K. lactis): 78 | INHIBITOR (lactase [4]; lactase-fragmenting activity): AEBSF | OPTIMUM REACTION TEMPERATURE (lactase [4]; lactase-fragmenting activity): 40 °C | OPTIMUM REACTION pH (lactase [4]; lactase-fragmenting activity): pH 7.0 | SUBSTRATE SPECIFICITY (lactase [4]): high substrate specificity | SUBSTRATE SPECIFICITY (lactase [4]; listed as K. lactis): 1159 | state of fragmentation of lactase (SDS-PAGE) (lactase [5]): fragmentation of lactase proceeded | amount of PrB at which fragmentation was not caused (lactase [5]; with respect to 1 NLU of lactase activity, added to F-1, 30° C. for 20 hours): 0.26 ng

B3: lactase described in Patent Literature 1: lactase from cultures of a strain of Kluyveromyces lactis (JP 60-18394 B) (protein, UniProt P00723 1-1025, looked up)
Beta-galactosidase: MSCLIPENLRNPKKVHENRLPTRAYYYDQDIFESLNGPWAFALFDAPLDAPDAKNLDWETAKKWSTISVPSHWELQEDWKYGKPIYTNVQYPIPIDIPNPPTVNPTGVYARTFELDSKSIESFEHRLRFEGVDNCYELYVNGQYVGFNKGSRNGAEFDIQKYVSEGENLVVVKVFKWSDSTYIEDQDQWWLSGIYRDVSLLKLPKKAHIEDVRVTTTFVDSQYQDAELSVKVDVQGSSYDHINFTLYEPEDGSKVYDASSLLNEENGNTTFSTKEFISFSTKKNEETAFKINVKAPEHWTAENPTLYKYQLDLIGSDGSVIQSIKHHVGFRQVELKDGNITVNGKDILFRGVNRHDHHPRFGRAVPLDFVVRDLILMKKFNINAVRNSHYPNHPKVYDLFDKLGFWVIDEADLETHGVQEPFNRHTNLEAEYPDTKNKLYDVNAHYLSDNPEYEVAYLDRASQLVLRDVNHPSIIIWSLGNEACYGRNHKAMYKLIKQLDPTRLVHYEGDLNALSADIFSFMYPTFEIMERWRKNHTDENGKFEKPLILCEYGHAMGNGPGSLKEYQELFYKEKFYQGGFIWEWANHGIEFEDVSTADGKLHKAYAYGGDFKEEVHDGVFIMDGLCNSEHNPTPGLVEYKKVIEPVHIKIAHGSVTITNKHDFITTDHLLFIDKDTGKTIDVPSLKPEESVTIPSDTTYVVAVLKDDAGVLKAGHEIAWGQAELPLKVPDFVTETAEKAAKINDGKRYVSVESSGLHFILDKLLGKIESLKVKGKEISSKFEGSSITFWRPPTNNDEPRDFKNWKKYNIDLMKQNIHGVSVEKGSNGSLAVVTVNSRISPVVFYYGFETVQKYTIFANKINLNTSMKLTGEYQPPDFPRVGYEFWLGDSYESFEWLGRGPGESYPDKKESQRFGLYDSKDVEEFVYDYPQENGNHTDTHFLNIKFEGAGKLSIFQKEKPFNFKISDEYGVDEAAHACDVKRYGRHYLRLDHAIHGVGSEACGPAVLDQYRLKAQDFNFEFDLAFE
deactivated ([6]; 50° C. for 10 minutes): 45% | deactivated ([6]; 55° C. for 10 minutes): 100%

Source: patent US20190075806A1, “PROTEINASE B AND LACTASE SOLUTION USING ITS PROPERTIES AND METHOD FOR PRODUCING THE SAME” (GODO SHUSEI CO., LTD., priority 2016, published 2019)
